pIC50: −log10 of the molar value.
Experiments:
[1] = molecular target: natural Fel d1 (cat (Felis domesticus)) (UniProt P30438); assay: SPR Biacore T200 sequential binding, 25 µg/mL mAb2 over mAb1:Fel d1; coupled mAb1: REGN1909
[2] = molecular target: natural Fel d1 (cat (Felis domesticus)) (UniProt P30438); assay: cell-based or functional assay
[3] = molecular target: Fel d1 (B-A)-mmH (cat (Felis domesticus)); assay: blocking ELISA, Fel d1 binding to donor polyclonal cat-allergic IgE
[4] = molecular target: natural Fel d1 (cat (Felis domesticus)) (UniProt P30438); assay: blocking ELISA, Fel d1 binding to plate-captured polyclonal human IgE

Sequence of Fel d1 (B-A)-mmH (cat (Felis domesticus)) (chain, as listed by the source limits assumed): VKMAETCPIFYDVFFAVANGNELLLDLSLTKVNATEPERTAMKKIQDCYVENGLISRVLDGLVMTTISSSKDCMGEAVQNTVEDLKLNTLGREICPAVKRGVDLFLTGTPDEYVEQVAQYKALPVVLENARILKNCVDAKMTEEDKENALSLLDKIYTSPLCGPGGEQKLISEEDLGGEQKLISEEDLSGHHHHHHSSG

Substance	Non-binding Control mAb (RU) [1] [RU]	basophil activation test, CD63 upregulation on basophils of cat-allergic donors, IC50 [2] [pM]	basophil activation test, CD203c upregulation on basophils of cat-allergic donors, IC50 [2] [pM]	phosphoflow assay, phosphorylation of ERK in basophils, inhibition [2] [%]	pIC50 [3]	pIC50 [4]	maximum blockade [4] [%]
Non-binding Control mAb (antibody)	-64	–	–	–	–	–	–
REGN1908-1909	–	10	55	> 80	9.24	9.35	83
